The source of these data is patent publication US20250313635A1, “ANTI-INTEGRIN ANTIBODIES AND USES THEREOF” (Merck Sharp & Dohme LLC, priority 2022, published 2025).

One assay has as its target T1, mαvβ8 (Mus musculus, UniProt P43406+Q0VBD0).
T1 construct: The full extracellular domains for all α and β integrin subunits; (GGGS)3 linker (C); acidic coiled-coil with cysteine (C); GG-Avitag (C); hexa-histidine tag (C); basic coiled-coil with cysteine (C); made in house; host or cells: Expi293 cells
In words: Mouse AlphaLISA integrin-ligand blocking assay (LAP). The assay is classed as biochemical. To be noted: Table 12; read-out: IC50 Mouse integrin AlphaLISA assays mαvβ8. As for the experimental part: (§1) Integrin AlphaLISA assay. In the AlphaLISA integrin assays, we used a HEPES based buffer (25 mM HEPES pH 7.4, 137 mM NaCl, 1 mM MgCl2, 1 mM MnCl2, 2 mM CaCl2, 2.7 mM KCl, and 0.05% Tween 20). Optimal assay conditions were determined with a titration of the reagents for signal noise ratio (S/N), linear range, etc. For the respective integrins, we used the final concentrations described in Table 9.
(§2) Briefly, the testing antibody (8 μL) was added as a 4×(of Final testing concentration) solution in the HEPES buffer described previously into a 384w AlphaPlate™ (Perkin Elmer #6005350). Then the integrin and ligand were added sequentially as 8×(4 μL each). Plates were sealed and incubated at room temperature for two hours. Then 4×acceptor bead solution ([…]) was added, and the plates were resealed and incubated at room temperature (RT) for one hour. Finally, 4×([…]) donor beads solution was added in a darkened room and incubated for 45 minutes at room temperature. Plates were read on the Envision (Perkin Elmer) in AlphaScreen™ mode within three hours of donor bead addition.

The target of the next assay is T2, mα5β1 (Mus musculus, UniProt P09055+P11688).
T2 construct: The full extracellular domains for all α and β integrin subunits; (GGGS)3 linker (C); acidic coiled-coil with cysteine (C); GG-Avitag (C); hexa-histidine tag (C); basic coiled-coil with cysteine (C); made in house; host or cells: Expi293 cells
T2 sequence (P11688 45-999 limits assumed): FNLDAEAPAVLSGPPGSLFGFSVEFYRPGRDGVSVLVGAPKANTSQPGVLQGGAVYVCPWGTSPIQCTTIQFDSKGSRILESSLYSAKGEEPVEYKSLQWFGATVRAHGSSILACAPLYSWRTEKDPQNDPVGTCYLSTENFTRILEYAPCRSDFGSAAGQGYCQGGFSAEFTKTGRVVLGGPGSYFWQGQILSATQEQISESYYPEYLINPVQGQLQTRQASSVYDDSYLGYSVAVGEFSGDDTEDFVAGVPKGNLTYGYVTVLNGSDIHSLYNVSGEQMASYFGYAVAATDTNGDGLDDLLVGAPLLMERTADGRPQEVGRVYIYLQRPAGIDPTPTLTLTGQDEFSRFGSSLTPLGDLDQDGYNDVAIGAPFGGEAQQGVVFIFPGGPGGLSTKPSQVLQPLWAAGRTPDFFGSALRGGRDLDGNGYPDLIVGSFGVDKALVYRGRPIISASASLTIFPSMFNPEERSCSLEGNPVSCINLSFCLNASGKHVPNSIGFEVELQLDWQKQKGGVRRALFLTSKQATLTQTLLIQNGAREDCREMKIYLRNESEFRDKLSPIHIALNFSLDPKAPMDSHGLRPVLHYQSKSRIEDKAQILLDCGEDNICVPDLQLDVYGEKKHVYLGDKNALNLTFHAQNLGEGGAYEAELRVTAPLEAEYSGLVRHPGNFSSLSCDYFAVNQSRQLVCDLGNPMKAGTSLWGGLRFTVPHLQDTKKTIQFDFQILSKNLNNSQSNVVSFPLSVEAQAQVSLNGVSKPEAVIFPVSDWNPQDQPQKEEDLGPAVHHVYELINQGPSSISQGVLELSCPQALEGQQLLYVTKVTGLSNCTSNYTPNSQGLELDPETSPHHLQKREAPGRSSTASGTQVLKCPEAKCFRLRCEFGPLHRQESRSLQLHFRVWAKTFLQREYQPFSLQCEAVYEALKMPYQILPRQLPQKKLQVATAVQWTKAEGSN
T2 sequence (P09055 21-728 limits assumed): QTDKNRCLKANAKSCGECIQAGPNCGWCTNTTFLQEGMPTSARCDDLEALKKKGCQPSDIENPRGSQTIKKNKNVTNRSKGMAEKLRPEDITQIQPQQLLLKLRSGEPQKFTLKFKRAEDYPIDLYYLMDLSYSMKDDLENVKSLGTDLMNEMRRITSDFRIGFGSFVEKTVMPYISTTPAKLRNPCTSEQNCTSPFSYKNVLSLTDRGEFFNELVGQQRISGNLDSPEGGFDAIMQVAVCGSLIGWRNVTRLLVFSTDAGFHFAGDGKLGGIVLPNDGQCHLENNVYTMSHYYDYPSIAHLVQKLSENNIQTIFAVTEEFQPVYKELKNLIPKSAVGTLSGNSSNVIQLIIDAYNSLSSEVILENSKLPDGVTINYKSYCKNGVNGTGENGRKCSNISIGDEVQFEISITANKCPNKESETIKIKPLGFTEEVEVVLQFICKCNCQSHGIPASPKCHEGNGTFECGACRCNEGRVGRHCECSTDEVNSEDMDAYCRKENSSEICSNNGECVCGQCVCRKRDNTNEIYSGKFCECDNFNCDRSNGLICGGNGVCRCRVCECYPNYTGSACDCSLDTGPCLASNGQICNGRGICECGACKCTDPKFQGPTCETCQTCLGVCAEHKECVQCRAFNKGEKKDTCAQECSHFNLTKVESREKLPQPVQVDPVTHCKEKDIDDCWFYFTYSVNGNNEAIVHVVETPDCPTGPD
In words: Mouse AlphaLISA integrin-ligand blocking assay (fibronectin). In kind it is biochemical. As to conditions: Table 12; read-out: IC50 Mouse integrin AlphaLISA assays mα5β1. As for the experimental part: as §1, §2
Background: In Alpha technology, singlet oxygen from a donor bead excites a nearby acceptor bead.

In another assay the target is T3, mαvβ5 (Mus musculus, UniProt O70309+P43406).
T3 construct: The full extracellular domains for all α and β integrin subunits; (GGGS)3 linker (C); acidic coiled-coil with cysteine (C); GG-Avitag (C); hexa-histidine tag (C); basic coiled-coil with cysteine (C); made in house; host or cells: Expi293 cells
T3 sequence (P43406 31-988 limits assumed): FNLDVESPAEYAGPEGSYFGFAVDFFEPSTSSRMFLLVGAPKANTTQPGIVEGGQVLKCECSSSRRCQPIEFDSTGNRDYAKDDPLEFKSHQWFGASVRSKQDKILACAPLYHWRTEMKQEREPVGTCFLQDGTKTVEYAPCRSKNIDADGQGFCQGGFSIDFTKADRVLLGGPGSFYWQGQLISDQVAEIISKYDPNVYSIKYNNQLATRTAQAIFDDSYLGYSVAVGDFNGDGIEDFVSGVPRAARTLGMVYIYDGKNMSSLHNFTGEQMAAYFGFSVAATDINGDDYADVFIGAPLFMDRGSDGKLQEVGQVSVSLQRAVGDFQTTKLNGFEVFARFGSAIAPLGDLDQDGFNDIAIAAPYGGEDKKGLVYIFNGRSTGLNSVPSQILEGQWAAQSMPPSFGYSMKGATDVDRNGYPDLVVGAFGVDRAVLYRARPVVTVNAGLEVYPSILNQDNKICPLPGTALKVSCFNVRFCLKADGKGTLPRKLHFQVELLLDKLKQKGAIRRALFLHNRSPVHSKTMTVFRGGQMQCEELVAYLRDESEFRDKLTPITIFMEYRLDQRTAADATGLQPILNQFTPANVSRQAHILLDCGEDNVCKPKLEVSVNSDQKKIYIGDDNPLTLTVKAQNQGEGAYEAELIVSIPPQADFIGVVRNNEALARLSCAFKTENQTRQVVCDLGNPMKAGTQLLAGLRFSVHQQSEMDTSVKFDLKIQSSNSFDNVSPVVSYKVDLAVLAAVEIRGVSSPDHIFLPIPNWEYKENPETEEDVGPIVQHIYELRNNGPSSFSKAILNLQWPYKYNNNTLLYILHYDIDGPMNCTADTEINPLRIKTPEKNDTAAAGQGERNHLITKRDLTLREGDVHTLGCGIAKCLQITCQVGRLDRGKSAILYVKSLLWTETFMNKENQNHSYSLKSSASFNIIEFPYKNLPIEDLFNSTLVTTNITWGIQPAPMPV
T3 sequence (O70309 24-719 limits assumed): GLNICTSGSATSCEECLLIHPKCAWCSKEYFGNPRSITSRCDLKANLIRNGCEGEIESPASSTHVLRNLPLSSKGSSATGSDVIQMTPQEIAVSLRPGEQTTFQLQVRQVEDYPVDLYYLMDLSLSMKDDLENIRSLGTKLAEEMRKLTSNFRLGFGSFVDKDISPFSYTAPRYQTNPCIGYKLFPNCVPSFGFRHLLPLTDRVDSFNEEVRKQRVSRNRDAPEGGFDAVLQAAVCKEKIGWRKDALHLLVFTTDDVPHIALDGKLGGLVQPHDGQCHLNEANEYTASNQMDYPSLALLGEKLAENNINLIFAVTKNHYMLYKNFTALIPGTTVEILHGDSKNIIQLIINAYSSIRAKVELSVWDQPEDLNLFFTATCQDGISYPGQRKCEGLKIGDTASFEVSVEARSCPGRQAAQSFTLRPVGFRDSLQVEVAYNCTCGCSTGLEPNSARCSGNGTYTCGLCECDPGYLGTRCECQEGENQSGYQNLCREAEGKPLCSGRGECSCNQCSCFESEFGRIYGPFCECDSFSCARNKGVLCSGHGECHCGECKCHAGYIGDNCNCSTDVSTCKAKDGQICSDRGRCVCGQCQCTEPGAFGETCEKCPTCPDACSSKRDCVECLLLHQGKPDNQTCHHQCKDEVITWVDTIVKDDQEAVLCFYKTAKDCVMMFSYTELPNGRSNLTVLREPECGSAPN
In words: Mouse AlphaLISA integrin-ligand blocking assay (vitronectin). As to conditions: Table 12; read-out: IC50 Mouse integrin AlphaLISA assays mαvβ5. In kind it is biochemical. The method, then: as §1, §2

Assay [1] relates to Normal human lung fibroblasts. In words: αSMA imaging, TGFβ-induced αSMA expression. The assay is classed as cell-based. The method, then: (§3) αSMA imaging. Primary cells (passage 3-5) were grown on Cell carrier Ultra, collagen Type 1 coated 96-well plates (Perkin Elmer, #6055700) at a density of 25,000 cells/well. Once the cells adhere, they were starved in serum free media for 24 hours followed by addition of treatments, i.e., 5 ng/mL TGFβ (Biolegend #580702)±inhibitors. Cells were pre-treated with inhibitors for 30 minutes prior to the addition of TGFβ stimulation. 48 hours post treatment, the cells were fixed in 4% methanol free paraformaldehyde (ThermoFisher Scientific #28908) for 20 minutes at room temperature and incubated with anti-alpha smooth muscle Actin antibody (Abcam #ab7817) at 1:4000 overnight at 4° C. Following primary antibody incubation, cells were incubated with Goat anti-mouse secondary antibody (ThermoFisher Scientific #A32723) at 1:500 and Hoechst (ThermoFisher Scientific #62249) at 1:1000 for one hour at RT. The fixed and stained cells were images for immunofluorescence on Perkin Elmer's Opera Phenix high content Imager.

Assay [2] deals with IPF patient lung fibroblasts. In words: αSMA imaging, TGFβ-induced αSMA expression. The assay is classed as cell-based, human. To be noted: TGFβ 5 ng/mL, 48 hours, read-out: IC50 of TGFβ-mediated αSMA induction. As for the experimental part: as §3

In general, IC50 refers to the concentration that gives 50% inhibition.

T1 sequence (P43406 31-988 limits assumed): as the sequence (P43406 31-988 limits assumed) above
T1 sequence (Q0VBD0 22-681 limits assumed): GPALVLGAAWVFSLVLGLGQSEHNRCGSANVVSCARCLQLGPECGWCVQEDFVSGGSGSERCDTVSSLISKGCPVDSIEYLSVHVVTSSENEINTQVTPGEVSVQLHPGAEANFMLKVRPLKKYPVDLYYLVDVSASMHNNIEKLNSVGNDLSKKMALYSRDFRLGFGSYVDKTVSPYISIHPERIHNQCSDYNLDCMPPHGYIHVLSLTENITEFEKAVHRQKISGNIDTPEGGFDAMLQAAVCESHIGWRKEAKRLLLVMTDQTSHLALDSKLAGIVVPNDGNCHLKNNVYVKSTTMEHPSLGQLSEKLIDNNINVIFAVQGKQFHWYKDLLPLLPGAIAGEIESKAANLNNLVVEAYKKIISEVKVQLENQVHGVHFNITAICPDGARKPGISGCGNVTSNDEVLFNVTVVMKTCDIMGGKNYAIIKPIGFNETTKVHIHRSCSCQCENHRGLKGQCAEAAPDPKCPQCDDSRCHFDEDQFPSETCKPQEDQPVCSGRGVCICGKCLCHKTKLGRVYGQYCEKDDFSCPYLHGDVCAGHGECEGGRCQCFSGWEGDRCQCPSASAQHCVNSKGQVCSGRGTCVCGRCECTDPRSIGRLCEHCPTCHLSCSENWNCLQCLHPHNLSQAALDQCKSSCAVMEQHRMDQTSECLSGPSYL

B1: Ab-29: integrin binder antibody, VH SEQ ID NO: 31, VL SEQ ID NO: 32 (antibody, V domains shown)
VH: ELQLQESGPGLVKPSETLSLTCTVSGGSISSNSYYWGWIRQPPGKGLEWIGSIYYSGSTYYNPSLKSRVTISVDTSKNQFSLKLSSVTAADTAVYYCARVRRVAGRGDSYYYYYGMDVWGQGTTVTVSS
VL: DIQMTQSPSSVSASVGDRVTITCRASQGISRWLAWYQQKPGKAPKLLIYAASSLQSGVPSRFSGSGSGTDFTLTISSLQPEDFATYYCQQAISHPWTFGGGTKVEIK
As to B1, the half-maximal inhibitory concentration (IC50) was 102 nM with mαvβ8 and > 250 nM with mα5β1.

B2: Ab-31: integrin binder antibody, VH SEQ ID NO: 35, VL SEQ ID NO: 36 (antibody, V domains shown)
VH: EVQLQESGPGLVKPSETLSLTCAVSGYSISSGYYWGWIRQPPGKGLEWIGSIYHSGNTYYNPSLKSRVTISVDTSKNQFSLKLSSVTAADTAVYYCARVPRYSRGDAYYYYGMDVWGQGTTVTVSS
VL: DIQMTQSPSTLSASVGDRVTITCRASQSIGSWLAWYQQKPGKAPKLLIYKASSLESGVPSRFSGSGSGTEFTLTISSLQPDDFATYYCQQSGPYPWTFGGGTKVEIK
Turning to B2, the half-maximal inhibitory concentration (IC50) is > 250 nM with mαvβ5, 66.3 nM with mαvβ8, > 250 nM with mα5β1 and 33 ± 21 nM in assay [2]. Also, in assay [1], the “activity on TGFβ-induced αSMA in normal human lung fibroblasts” value was “ineffective”.

B3: Ab-30: integrin binder antibody, VH SEQ ID NO: 33, VL SEQ ID NO: 34 (antibody, V domains shown)
VH: EVQLQESGPGLVKPSETLSLTCAVSGYSISSGYYWGWIRQPPGKGLEWIGSIYHSGNTYYNPSLKSRVTISVDTSKNQFSLKLSSVTAADTAVYYCARVPRYSRGDAYYYYGMDVWGQGTTVTVSS
VL: DIQMTQSPSTLSASVGDRVTITCRASQSISSWLAWYQQKPGKAPKLLIYKASSLESGVPSRFSGSGSGTEFTLTISSLQPDDFATYYCQQVKIYPPYTFGGGTKVEIK
As for B3, the results for the IC50 with mαvβ5, with mαvβ8 and in the assay with mα5β1 were > 250 nM, 25.1 nM and > 250 nM, respectively.

B4: Ab-33: integrin binder antibody, VH SEQ ID NO: 39, VL SEQ ID NO: 40 (antibody, V domains shown)
VH: EVQLVQSGAEVKKPGSSVKVSCKASGGTFSNYAISWVRQAPGQGLEWMGGIIPIFGTANYAQKFQGRVTITADESTSTAYMELSSLRSEDTAVYYCARAPRSARGDMYYYYYGMDVWGQGTTVTVSS
VL: DIQMTQSPSTLSASVGDRVTITCRASQSIGSWLAWYQQKPGKAPKLLIYKASSLESGVPSRFSGSGSGTEFTLTISSLQPDDFATYYCQQYGRYPWTFGGGTKVEIK
For B4, the 50% inhibitory concentration (IC50) with mαvβ8 is 24.7 nM; with mα5β1, > 250 nM.

B5: Ab-32: integrin binder antibody, VH SEQ ID NO: 37, VL SEQ ID NO: 38 (antibody, V domains shown)
VH: EVQLQESGPGLVKPSETLSLTCAVSGYSISSGYYWGWIRQPPGKGLEWIGSIYHSGNTYYNPSLKSRVTISVDTSKNQFSLKLSSVTAADTAVYYCARVPRYSRGDAYYYYGMDVWGQGTTVTVSS
VL: EIVLTQSPGTLSLSPGERATLSCRASQSVRSSYLAWYQQKPGQAPRLLIYGASSRATGIPDRFSGSGSGTDFTLTISRLEPEDFAVYYCQQAGLVFTFGGGTKVEIK
For the molecule B5, the figures for the concentration for half-maximal inhibition (IC50) with mαvβ5, in the assay with mαvβ8 and in the assay with mα5β1 were > 250 nM, 71.9 nM and > 250 nM, respectively.
